Measurements as given in paper PMC11290853.
Residue numbers refer to the chain shown, from its start. Like-named read-outs stand apart in the source and are kept apart here.

Legend:
[1] = target: T1, type 1 cholecystokinin receptor, wild type, expressed in SRD15 cells (human), P32238
T1 chain: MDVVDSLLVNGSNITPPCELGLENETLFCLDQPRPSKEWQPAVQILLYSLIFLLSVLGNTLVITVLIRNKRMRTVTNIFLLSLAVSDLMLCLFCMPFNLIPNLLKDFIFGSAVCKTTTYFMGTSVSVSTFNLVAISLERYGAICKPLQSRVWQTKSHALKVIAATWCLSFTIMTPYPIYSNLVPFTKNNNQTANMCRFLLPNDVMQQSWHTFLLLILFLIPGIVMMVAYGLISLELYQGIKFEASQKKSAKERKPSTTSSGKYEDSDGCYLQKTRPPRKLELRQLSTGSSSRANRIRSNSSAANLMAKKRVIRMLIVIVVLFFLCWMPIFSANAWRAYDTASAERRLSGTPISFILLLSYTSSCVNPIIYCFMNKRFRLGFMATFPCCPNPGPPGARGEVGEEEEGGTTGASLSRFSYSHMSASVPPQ

[2] = target: T2, type 1 cholecystokinin receptor, wild type, expressed in HEK-293 cells (human), P32238
T2 chain: T1 chain

[3] = target: T3, type 2 cholecystokinin receptor, wild type, expressed in HEK-293 cells (human), P32239
T3 chain: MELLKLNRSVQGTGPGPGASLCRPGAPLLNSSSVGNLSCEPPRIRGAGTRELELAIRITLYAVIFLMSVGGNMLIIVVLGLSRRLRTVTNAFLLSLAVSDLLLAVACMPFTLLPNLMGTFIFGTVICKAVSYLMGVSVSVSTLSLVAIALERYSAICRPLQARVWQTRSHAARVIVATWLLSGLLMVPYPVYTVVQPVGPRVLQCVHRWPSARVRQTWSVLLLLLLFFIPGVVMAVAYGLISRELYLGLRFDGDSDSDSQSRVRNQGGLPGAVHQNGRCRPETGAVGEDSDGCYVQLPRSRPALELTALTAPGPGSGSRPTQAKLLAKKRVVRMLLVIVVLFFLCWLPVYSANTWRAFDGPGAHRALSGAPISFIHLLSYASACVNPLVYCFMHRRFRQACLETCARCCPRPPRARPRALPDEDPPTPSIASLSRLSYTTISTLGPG

[4] = target: T4, CCK2R(sterol 7M) expressed in HEK-293 cells (human), P32239
T4 chain: T3 chain with L143F, A149S, S154G, L225I, F228L, V232I, A235M

[5] = target: T5, CCK1R(sterol 7M) expressed in HEK-293 cells (human), P32238
T5 chain: T1 chain with F130L, S136A, G141S, I216L, L219F, I223V, M226A

[6] = target: T6, type 1 cholecystokinin receptor, wild type, expressed in CHO-K1 cells (human), P32238
T6 chain: T1 chain

[7] = target: T7, CCK1R(Y140A) expressed in HEK-293 cells (human), P32238
T7 chain: T1 chain with Y140A

[8] = target: T1, type 1 cholecystokinin receptor, wild …; experiment: radioligand binding
[9] = target: T2, type 1 cholecystokinin receptor, wild …; experiment: radioligand binding
[10] = target: T3, type 2 cholecystokinin receptor, wild …; experiment: radioligand binding
[11] = target: T4, CCK2R(sterol 7M) expressed in HEK-293 …; experiment: radioligand binding
[12] = target: T5, CCK1R(sterol 7M) expressed in HEK-293 …; experiment: radioligand binding
[13] = target: T6, type 1 cholecystokinin receptor, wild …; experiment: radioligand binding
[14] = target: T7, CCK1R(Y140A) expressed in HEK-293 cells …; experiment: radioligand binding
[15] = target: T2, type 1 cholecystokinin receptor, wild …; experiment: radioligand binding
[16] = target: T3, type 2 cholecystokinin receptor, wild …; experiment: radioligand binding
[17] = target: T4, CCK2R(sterol 7M) expressed in HEK-293 …; experiment: radioligand binding
[18] = target: T5, CCK1R(sterol 7M) expressed in HEK-293 …; experiment: radioligand binding
[19] = target: T7, CCK1R(Y140A) expressed in HEK-293 cells …; experiment: radioligand binding

B1: CCK-4, C-terminal tetrapeptide of cholecystokinin (peptide)
chain: WMDF
modifications: not checked
[1]
  iCa^2+, pEC50; SRD15-CCK1R cells: 6.8
  iCa^2+, pEC50; SRD15-CCK1R cells + MβCD (cholesterol depleted): 5.7
[2]
  iCa^2+, pEC50; HEK-293 cells, + Chol: 6.2
  iCa^2+, pEC50; HEK-293 cells, control: 5.5
[3]
  iCa^2+, pEC50; HEK-293 cells, + Chol: 9.4
  iCa^2+, pEC50; HEK-293 cells, control: 9.5
[4]
  iCa^2+, pEC50; HEK-293 cells, + Chol: 9.2
  iCa^2+, pEC50; HEK-293 cells, control: 9.1
[5]
  iCa^2+, pEC50; HEK-293 cells, + Chol: 6.8
  iCa^2+, pEC50; HEK-293 cells, control: 6.7
[6]
  iCa^2+, pEC50; CHO-CCK1R cells: 5.3
[7]
  iCa^2+, pEC50; HEK-293 cells, + Chol: 5.7
  iCa^2+, pEC50; HEK-293 cells, control: 5.7
[8]
  pIC50: 5.5
[9]
  pIC50: 4.2
[10]
  pIC50: 7.7
[11]
  pIC50: 7.2
[12]
  pIC50: < 4
[13]
  pIC50: 4.5
[14]
  pIC50: 4.3
[15]
  pIC50: 4
[16]
  pIC50: 7.8
[17]
  pIC50: 7.6
[18]
  pIC50: < 4
[19]
  pIC50: 4.3
